Series [1] concerns the target T1, ZmNDPK1 (nucleoside diphosphate kinase 1, homolog of human NM23-H2) (Zea mays, UniProt B4FK49 1-149).
T1 sequence: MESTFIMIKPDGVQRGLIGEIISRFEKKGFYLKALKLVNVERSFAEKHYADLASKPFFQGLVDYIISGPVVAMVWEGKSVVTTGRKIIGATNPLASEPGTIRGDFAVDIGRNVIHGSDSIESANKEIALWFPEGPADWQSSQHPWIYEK
Kind of series: competition; 100-fold excess vs hex4_A5U, 20 mM KCl; Filter binding: oligos annealed in 10 mM TBA phosphate pH 7.5 + 20 mM KCl, 60 min incubation; competition 1 nM FAM probe, 100 nM competitor, 5 nM protein. FRET: 10 mM TBA pH 7.5 + 100 mM KCl or LiCl, 1 h at 4 °C, 0-1000 nM protein. Particulars: protein: recombinant, chain copies: 6.

The target in series [2] is T1, ZmNDPK1 (nucleoside diphosphate kinase …). The series can be described thus: filter binding; 20 mM KCl; Filter binding: oligos annealed in 10 mM TBA phosphate pH 7.5 + 20 mM KCl, 60 min incubation; competition 1 nM FAM probe, 100 nM competitor, 5 nM protein. FRET: 10 mM TBA pH 7.5 + 100 mM KCl or LiCl, 1 h at 4 °C, 0-1000 nM protein. Particulars: protein: recombinant, chain copies: 6, label: 5' FAM (Kd).

GGGTTTTGAATGGAGTAGGAGTTAGGG (structured_DNA) [A5UBF]: the binding signal in series [1] (bulged G4, anti-h by CD) turned out to be 23 % competition. Still for that read-out and setting: under GGGTTTTGAAGGGATTATGAGGTAGGG (structured_DNA) [A5UAG] stands 40 % competition. GGGTTTTGAAGGGATGAGGATTTAGGG (structured_DNA) [A5UAE]: the binding signal in series [1] (label: 5' FAM (Kd), bulged G4, anti-h by CD) was determined as 16 % competition. The Kd in series [2] (bulged G4, anti-h by CD) is 194 nM. For the molecule GGGTTTTGAATGGAGTATTAGGGAGGG (structured_DNA) [A5UBH], in series [1] (bulged G4, parallel), the binding signal amounted to 85 % competition. With GGGTTTTGAATTTAGGAGTAGGGAGGG (structured_DNA) [A5UDH], in series [1] (bulged G4, parallel), the binding signal worked out at 77 % competition. As to GGGTTTTGAAGGGATTAGGAGTTAGGG (structured_DNA) [A5UAF], the binding signal in series [1] (bulged G4, anti-h by CD) came to 15 % competition. In the case of GGGTTTTGAATTGAGGATTAGGGAGGG (structured_DNA) [A5UCH], in series [1] (bulged G4, parallel), the binding signal was determined as 76 % competition. For the molecule GGGTTTTGAATGGAGTATGAGGTAGGG (structured_DNA) [A5UBG], the binding signal in series [1] (bulged G4, anti-h by CD) was found to be 50 % competition. Take GGGTTTTGAATTTATGAGGAGGGAGGG (structured_DNA) [A5UEH]: the binding signal in series [1] (bulged G4, parallel) amounted to 81 % competition. As to GGGTTTTGAAGGGAGGAGTATTTAGGG (structured_DNA) [A5UAD], in series [1] (bulged G4, parallel), the binding signal was determined as 73 % competition. GGGTTTTGAAGGGATTATTAGGGAGGG (structured_DNA) [A5UAH (canonical; trim_AH)]: the binding signal in series [1] (label: 5' FAM (Kd), canonical G4, parallel) was determined as 77 % competition. Moreover, the equilibrium dissociation constant (Kd) in series [2] (canonical G4, parallel) was determined as 14.4 nM. Take GGGTTTTGAATTGAGGAGGAGTTAGGG (structured_DNA) [A5UCF]: the binding signal in series [1] (bulged G4, parallel) amounted to 62 % competition. Consider GGGTTTTGAATTGAGGATGAGGTAGGG (structured_DNA) [A5UCG], for which the binding signal in series [1] (bulged G4, mixed by CD) was found to be 36 % competition.

Broadly, the Kd is the free concentration of one partner at which half of the binding sites on the other are occupied at equilibrium, for simple one-to-one binding.
